Source: patent US20200102347A1 (AUCTUS BIOLOGIES, published 2020)
Substitutions are numbered along the chain they refer to. Names and notes keep the numbering of the source. No end group written: not given here. *: point of attachment. RhodamineB = CCN(CC)c1ccc2c(-c3ccccc3C(=O)*)c3ccc(=[N+](CC)CC)cc-3oc2c1

T1: NativeRPtag(large)_with_Tags_and_Cys (Thermoanaerobacter tengcongensis)
T1 construct: Unlabeled in anisotropy assays; coupled through the engineered N-terminal Cys to SulfoLink agarose or maleimide plates in column, pull-down and ELISA assays
T1 chain: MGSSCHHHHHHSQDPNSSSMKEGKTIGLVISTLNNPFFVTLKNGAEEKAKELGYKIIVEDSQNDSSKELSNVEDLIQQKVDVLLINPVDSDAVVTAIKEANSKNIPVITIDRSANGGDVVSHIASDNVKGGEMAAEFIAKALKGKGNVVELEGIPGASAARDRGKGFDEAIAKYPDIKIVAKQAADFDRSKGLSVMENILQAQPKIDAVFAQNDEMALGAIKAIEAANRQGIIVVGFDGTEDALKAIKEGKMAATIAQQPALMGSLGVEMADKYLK

T2: RPtag(small) Nd2, Cd4 (Thermoanaerobacter tengcongensis)
T2 peptide: RhodamineB-KIPNFIPAELKLITK

T3: MaturePDGF-β_NterminalPeptide
T3 construct: an N-terminal G was added and is left out of the numbering; also called PDGF-β peptide
T3 peptide: RhodamineB-GSLGSLTIAEPAMIAE

T4: RPtag(large) f137d (Thermoanaerobacter tengcongensis)
T4 construct: also called F137D RPtag(large)
T4 chain: T1 chain with F137D

B1: RPtag(small) Nd2, p5a, e18a (peptide)
peptide: RhodamineB-KIANFIPAELKLITKANVQ
modifications: also: also used unlabeled as competitor
notes: Rhodamine labeled in the Kd assays; also called RPtag(small) (tight)
B2: Nterminally_tagged_RPtag(small)Nd8,Cd4(fast)_tagRFP (other)
chain: MGSSPAELKLITKGSENLYFQGGSMVSKGEELIKENMHMKLYMEGTVNNHHFKCTSEGEGKPYEGTQTMRIKVVEGGPLPFAFDILATSFMYGSRTFINHTQGIPDFFKQSFPEGFTWERVTTYEDGGVLTATQDTSLQDGCLIYNVKIRGVNFPSNGPVMQKKTLGWEANTEMLYPADGGLEGRSDMALKLVGGGHLICNFKTTYRSKKPAKNLKMPGVYYVDHRLERIKEADKETYVEQHEVAVARYCDLPSKLGHKLNGSSGHHHHHHHH
notes: also called tagRFP containing an N-terminal RPtag (small) Nd8Cd4 tag
B3: RPtag(large) H122L, A253R double mutant (designed binder)
chain: T1 chain with H122L, A253R
notes: Unlabeled against the rhodamine peptides; also called RPtag (large) h1221, a253r; double mutant RPtag(large)

How the values were obtained:
[1] = molecular target: T1, NativeRPtag(large)_with_Tags_and_Cys; test: fluorescence anisotropy; NaCl (3M)
[2] = molecular target: T1, NativeRPtag(large)_with_Tags_and_Cys; test: fluorescence anisotropy; CaCl2 (3M)
[3] = molecular target: T1, NativeRPtag(large)_with_Tags_and_Cys; test: competition fluorescence anisotropy; 1 µM RPtag large and 1 µM rhodamine PDGF-β N-terminal peptide (the displaced ligand), unlabeled Nd2,p5a,e18a titrated, 1 h; 50 mM Tris pH 8.0, 0.005% Tween20
Method: The curves were fit with the equation f=y0+(ymax−y0)*(Ptot+x+Kd−sqrt((Ptot+x+Kd)\hat{ }2−4*Ptot*x))/(2*Ptot), where y0 is the baseline anisotropy, ymax is the maximum anisotropy, Ptot is the fixed concentration of labeled peptide used, x is the variable concentration of protein used, and Kd is the measured Kd. […] The curves were fit empirically to a 4 parameter logistic regression. In both cases, the buffer was 50 mM Tris pH 8.0, 0.005% Tween20. Curves were fit in 4 independent trials each, and the data was averaged for display. Points are mean±SEM (n=3).

[4] = molecular target: T1, NativeRPtag(large)_with_Tags_and_Cys; test: fluorescence anisotropy; BME (10%)
[5] = molecular target: T1, NativeRPtag(large)_with_Tags_and_Cys; test: fluorescence anisotropy; glycerol (20%)
[6] = molecular target: T1, NativeRPtag(large)_with_Tags_and_Cys; test: fluorescence anisotropy; DMSO (20%)
[7] = molecular target: T1, NativeRPtag(large)_with_Tags_and_Cys; test: fluorescence anisotropy; Tween20 (2%)
[8] = molecular target: T1, NativeRPtag(large)_with_Tags_and_Cys; test: fluorescence anisotropy; TritonX-100 (2%)
[9] = molecular target: T1, NativeRPtag(large)_with_Tags_and_Cys; test: fluorescence anisotropy; NH4SO4 (3M)
[10] = molecular target: T1, NativeRPtag(large)_with_Tags_and_Cys; test: fluorescence anisotropy; MeOH (20%)
[11] = molecular target: T1, NativeRPtag(large)_with_Tags_and_Cys; test: fluorescence anisotropy; 50 mM Tris pH 8.0, 0.005% Tween 20, no additive
[12] = molecular target: T1, NativeRPtag(large)_with_Tags_and_Cys; test: fluorescence anisotropy; sorbitol (3M)
[13] = molecular target: T1, NativeRPtag(large)_with_Tags_and_Cys; test: fluorescence anisotropy; MnSO4 (10 mM)
[14] = molecular target: T1, NativeRPtag(large)_with_Tags_and_Cys; test: fluorescence anisotropy; DTT (100 mM)
[15] = molecular target: T1, NativeRPtag(large)_with_Tags_and_Cys; test: calculated from koff and Kd; 50 mM Tris pH 8.0, 0.005% Tween 20, no additive
[16] = molecular target: T1, NativeRPtag(large)_with_Tags_and_Cys; test: fluorescence anisotropy; ribose (3M)
[17] = molecular target: T1, NativeRPtag(large)_with_Tags_and_Cys; test: fluorescence anisotropy; MgCl2 (3M)
[18] = molecular target: T1, NativeRPtag(large)_with_Tags_and_Cys; test: fluorescence anisotropy; No Additive; No Additive; 100 mM Tris pH 8.0, 0.005% Tween 20 (Table 3)
[19] = molecular target: T1, NativeRPtag(large)_with_Tags_and_Cys; test: fluorescence anisotropy; EtOH (20%)
[20] = molecular target: T1, NativeRPtag(large)_with_Tags_and_Cys; test: fluorescence anisotropy, competitor chase; 50 mM Tris pH 8.0, 0.005% Tween 20, no additive
[21] = molecular target: T1, NativeRPtag(large)_with_Tags_and_Cys; test: fluorescence anisotropy; NiCl2 (100 mM)
[22] = molecular target: T1, NativeRPtag(large)_with_Tags_and_Cys; test: fluorescence anisotropy; PG (50%)
[23] = molecular target: T1, NativeRPtag(large)_with_Tags_and_Cys; test: fluorescence anisotropy; KCl (3M)
[24] = molecular target: T1, NativeRPtag(large)_with_Tags_and_Cys; test: fluorescence anisotropy; acetone (20%)
[25] = molecular target: T1, NativeRPtag(large)_with_Tags_and_Cys; test: immobilized RPtag(large) column; bound in 3 M NaCl, eluted with 3 M imidazole
Method: Briefly, columns, as described above, were first equilibrated with 10 mL 100 mM Tris pH 8.0, 3 M NaCl, 0.005% Tween20. […] The column was then washed with 10 mL of the same buffer. Finally, bound target molecules were eluted with 10 mL of 100 mM Tris pH 8.0, 3 M imidazole, 0.005% Tween20.

RPtag(small) Nd2, Cd4 = molecular target: T2, RPtag(small) Nd2, Cd4; test: fluorescence anisotropy, 2 nM rhodamine Nd2Cd4
Method: (§1) After the incubation, fluorescence anisotropy was measured, and the resultant curves were fit with the equation f=y0+(ymax−y0)*(Ptot+x+Kd−sqrt((Ptot+x+Kd)\hat{ }2−4*Ptot*x))/(2*Ptot), where y0 is the baseline anisotropy, ymax is the maximum anisotropy, Ptot is the fixed concentration of labeled peptide used, x is the variable concentration of protein used, and Kd is the measured Kd. […] Buffer was 50 mM Tris pH 8.0, 0.005% Tween20.

[26] = molecular target: T5, PDGF-β dimer (recombinant, purified and refolded mature PDGF-β) (Homo sapiens (Human), UniProt P01127 82-190); test: fluorescence anisotropy; 100 nM FITC-labeled RPtag large double mutant, unlabeled PDGF-β dimer titrated, 1 h at room temperature
T5 construct: also called mature PDGF-β dimer
Method: After 1 h incubation at room temperature, fluorescence anisotropy was measured, and the resultant curves were fit to a standard binding equation.

[27] = molecular target: T3, MaturePDGF-β_NterminalPeptide; test: fluorescence anisotropy, 20 nM rhodamine PDGF-β N-terminal peptide
Method: as §1

[28] = molecular target: T1, NativeRPtag(large)_with_Tags_and_Cys; test: fluorescence anisotropy; No Additive
[29] = molecular target: T1, NativeRPtag(large)_with_Tags_and_Cys; test: calculated from koff and Kd; no additive; calculated in the text from koff and Kd
Bovine Serum Albumin = molecular target: T6, Bovine Serum Albumin (bovine, UniProt P02769 25-607); test: fluorescence anisotropy; 1 nM rhodamine native RPtag (small), BSA titrated
T6 construct: also called BSA
Method: Kd's were calculated according to the equation f=y0+(ymax−y0)*(Ptot+x+Kd−sqrt((Ptot+x+Kd)\hat{ }2−4*Ptot*x))/(2*Ptot), where y0 is the baseline anisotropy, ymax is the maximum anisotropy, Ptot is the fixed concentration of labeled peptide used, x is the variable concentration of protein used, and Kd is the measured Kd.

[30] = molecular target: T1, NativeRPtag(large)_with_Tags_and_Cys; test: fluorescence anisotropy, chase with 0.1 mM unlabeled native RPtag small, first order fit; no additive; first order fit of the dissociation traces (n=15)
From the text: Data processing was done as in panel a, except the red fits were to the single exponential decay equation y=y0+A*exp(−b*t).
Panel e is a graph of the initial rates of the traces represented in d. […] Data are mean±SE (n=3).

[31] = molecular target: T1, NativeRPtag(large)_with_Tags_and_Cys; test: fluorescence anisotropy, association kinetics
[32] = molecular target: T1, NativeRPtag(large)_with_Tags_and_Cys; test: fluorescence anisotropy, competitor chase
[33] = molecular target: T1, NativeRPtag(large)_with_Tags_and_Cys; test: fluorescence anisotropy kinetics
[34] = molecular target: T1, NativeRPtag(large)_with_Tags_and_Cys; test: calculated from koff and Kd
[35] = molecular target: T1, NativeRPtag(large)_with_Tags_and_Cys; test: fluorescence anisotropy
RPtag(large) f137d = molecular target: T4, RPtag(large) f137d; test: fluorescence anisotropy (FIG. 14)
Method: Resultant curves were fit with the equation f=y0+(ymax−y0)*(Ptot+x+Kd−sqrt((Ptot+x+Kd)\hat{ }2−4*Ptot*x))/(2*Ptot), where y0 is the baseline anisotropy, ymax is the maximum anisotropy, Ptot is the fixed concentration of labeled peptide used, x is the variable concentration of protein used, and Kd is the measured Kd. […] Buffer was 50 mM Tris pH 8.0, 0.005% tween20.

T5 sequence (P01127 82-190): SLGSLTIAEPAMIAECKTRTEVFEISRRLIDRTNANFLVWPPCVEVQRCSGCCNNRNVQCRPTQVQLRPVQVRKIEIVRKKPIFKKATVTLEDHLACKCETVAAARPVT
T6 sequence (P02769 25-607 limits assumed): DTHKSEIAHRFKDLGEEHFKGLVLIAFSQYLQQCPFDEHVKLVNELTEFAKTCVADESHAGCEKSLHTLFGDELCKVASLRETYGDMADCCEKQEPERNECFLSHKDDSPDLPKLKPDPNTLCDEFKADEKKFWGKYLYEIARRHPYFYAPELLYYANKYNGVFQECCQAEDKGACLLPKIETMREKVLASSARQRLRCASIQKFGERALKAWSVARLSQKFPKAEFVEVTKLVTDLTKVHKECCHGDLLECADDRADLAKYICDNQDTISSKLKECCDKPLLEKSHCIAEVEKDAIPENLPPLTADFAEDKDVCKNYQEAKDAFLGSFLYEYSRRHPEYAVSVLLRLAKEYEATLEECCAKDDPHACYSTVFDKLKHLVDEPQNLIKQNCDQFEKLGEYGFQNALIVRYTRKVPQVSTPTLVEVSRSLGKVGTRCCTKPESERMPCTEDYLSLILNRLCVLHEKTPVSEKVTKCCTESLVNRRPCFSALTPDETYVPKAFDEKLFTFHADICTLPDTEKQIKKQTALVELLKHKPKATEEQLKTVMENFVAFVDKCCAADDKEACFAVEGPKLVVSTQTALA

Binder | Kd [1] | Kd [2] | Kd [4] | Kd [5] | Kd [6] | Kd [7] | Kd [8] | Kd [9] | Kd [10] | Kd [11] | Kd [12] | Kd [13] | Kd [14] | kon [15] | Kd [16] | Kd [17] | Kd [19] | koff [20] | Kd [21] | Kd [22] | also measured
B1 | < 0.001 nM | 150 nM | 6.7 nM | < 0.001 nM | 0.023 nM | 4.7 nM | 0.046 nM | 44 nM | 0.056 nM | 0.047 nM | < 0.001 nM | 22 nM | 0.073 nM | 4.67e+06 M⁻¹ s⁻¹ | < 0.001 nM | 350 nM | 0.1 nM | 0.000217 s⁻¹ | 2.2 nM | 49 nM | IC50 (read off the curve) [3]: ~500 nM; Kd [18]: 0.037 nM; Kd [23]: 0.011 nM; Kd [24]: 0.019 nM
B2 |  |  |  |  |  |  |  |  |  |  |  |  |  |  |  |  |  |  |  |  | binding result [25]: binds
B3 |  |  |  |  |  |  |  |  |  |  |  |  |  |  |  |  |  |  |  |  | Kd (RPtag(small) Nd2, Cd4): 3.1 nM; Kd [26]: 75 nM; Kd [27]: 1500 nM
RhodamineB-GEKIPNFIPAELKLITKENVQ (Synthetic peptide) [native RPtag(small)] | 0.0027 nM | 330 nM | 5.3 nM | 0.034 nM | 0.17 nM | 0.49 nM | 0.64 nM | 1.5 nM | 0.11 nM | 0.21 nM | 2.5 nM | 160 nM | 0.51 nM | 717000 M⁻¹ s⁻¹ | 0.023 nM | 124 nM | 0.17 nM | 0.000152 s⁻¹ | 3.2 nM | 19 nM | Kd [28]: 0.21 nM; kon [29]: ~767000 M⁻¹ s⁻¹; binding result (Bovine Serum Albumin): no binding; koff [30]: 0.0002 s⁻¹; Keq (S-S*) [31]: 1.6; kf (S to S*) [31]: 0.092 min⁻¹; kr (S* to S) [31]: 0.056 min⁻¹; Kd [23]: < 0.001 nM; Kd [24]: 0.15 nM
RhodamineB-GEKIANFIPAELKLITKENVQ [RPtag(small) p5a] |  |  |  |  |  |  |  |  |  |  |  |  |  |  |  |  |  |  |  |  | koff [32]: 0.0004 s⁻¹; fold increase of kon and koff against native [33]: ~7 fold; kon [34]: 1.83e+06 M⁻¹ s⁻¹; Keq (S-S*) [31]: 1.8; kf (S to S*) [31]: 0.093 min⁻¹; kr (S* to S) [31]: 0.052 min⁻¹; Kd [35]: 0.23 nM
RhodamineB-GEKIPNFIPAELKKITKENVQ (also called L14K RPtag(small)) [RPtag(small) l14k] |  |  |  |  |  |  |  |  |  |  |  |  |  |  |  |  |  |  |  |  | binding result (RPtag(large) f137d): binds
